Results taken from publication PMC11298613.

Molecular target: HA-bromoTAG-PPM1H

Substance FLAG-dTAG-SMAD3 has a decrease in tail phosphorylation of dTAG-SMAD3 by immunoblot in U2OS cells co-expressing both, 2 h TGF-β with BDPIC 0.1-10 μM against DMSO of 50%.
